Data published in paper PMC2647316 (Nucleic Acids Research, 2008).

T1: GkDnaC replicative helicase WT (Geobacillus kaustophilus HTA426, UniProt Q5KU75 1-454)
T1 sequence: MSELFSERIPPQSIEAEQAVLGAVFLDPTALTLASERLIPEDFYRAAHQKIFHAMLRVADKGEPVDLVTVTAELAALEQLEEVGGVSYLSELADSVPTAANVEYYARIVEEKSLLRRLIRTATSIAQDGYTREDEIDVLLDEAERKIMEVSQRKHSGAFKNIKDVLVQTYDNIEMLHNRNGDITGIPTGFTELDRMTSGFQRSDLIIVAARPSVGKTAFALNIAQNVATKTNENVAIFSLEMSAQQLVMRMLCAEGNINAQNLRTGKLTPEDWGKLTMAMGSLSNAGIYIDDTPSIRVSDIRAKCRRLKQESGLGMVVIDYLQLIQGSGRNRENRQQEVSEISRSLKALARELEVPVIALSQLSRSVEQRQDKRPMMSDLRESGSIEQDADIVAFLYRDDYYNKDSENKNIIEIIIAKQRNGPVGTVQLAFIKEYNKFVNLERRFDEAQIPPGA


Target: the molecule itself
Assay: SEC

| Binder | stoichiometry N |
| --- | --- |
| GkDnaC R145K146A double mutant (enzyme, Geobacillus kaustophilus HTA426, UniProt Q5KU75 1-454, looked up) MSELFSERIPPQSIEAEQAVLGAVFLDPTALTLASERLIPEDFYRAAHQKIFHAMLRVADKGEPVDLVTVTAELAALEQLEEVGGVSYLSELADSVPTAANVEYYARIVEEKSLLRRLIRTATSIAQDGYTREDEIDVLLDEAEAAIMEVSQRKHSGAFKNIKDVLVQTYDNIEMLHNRNGDITGIPTGFTELDRMTSGFQRSDLIIVAARPSVGKTAFALNIAQNVATKTNENVAIFSLEMSAQQLVMRMLCAEGNINAQNLRTGKLTPEDWGKLTMAMGSLSNAGIYIDDTPSIRVSDIRAKCRRLKQESGLGMVVIDYLQLIQGSGRNRENRQQEVSEISRSLKALARELEVPVIALSQLSRSVEQRQDKRPMMSDLRESGSIEQDADIVAFLYRDDYYNKDSENKNIIEIIIAKQRNGPVGTVQLAFIKEYNKFVNLERRFDEAQIPPGA | 6 |
| GkDnaC R145A (enzyme, Geobacillus kaustophilus HTA426, UniProt Q5KU75 1-454, looked up) MSELFSERIPPQSIEAEQAVLGAVFLDPTALTLASERLIPEDFYRAAHQKIFHAMLRVADKGEPVDLVTVTAELAALEQLEEVGGVSYLSELADSVPTAANVEYYARIVEEKSLLRRLIRTATSIAQDGYTREDEIDVLLDEAEAKIMEVSQRKHSGAFKNIKDVLVQTYDNIEMLHNRNGDITGIPTGFTELDRMTSGFQRSDLIIVAARPSVGKTAFALNIAQNVATKTNENVAIFSLEMSAQQLVMRMLCAEGNINAQNLRTGKLTPEDWGKLTMAMGSLSNAGIYIDDTPSIRVSDIRAKCRRLKQESGLGMVVIDYLQLIQGSGRNRENRQQEVSEISRSLKALARELEVPVIALSQLSRSVEQRQDKRPMMSDLRESGSIEQDADIVAFLYRDDYYNKDSENKNIIEIIIAKQRNGPVGTVQLAFIKEYNKFVNLERRFDEAQIPPGA | 6 |
| GkDnaC R120A (enzyme, Geobacillus kaustophilus HTA426, UniProt Q5KU75 1-454, looked up) MSELFSERIPPQSIEAEQAVLGAVFLDPTALTLASERLIPEDFYRAAHQKIFHAMLRVADKGEPVDLVTVTAELAALEQLEEVGGVSYLSELADSVPTAANVEYYARIVEEKSLLRRLIATATSIAQDGYTREDEIDVLLDEAERKIMEVSQRKHSGAFKNIKDVLVQTYDNIEMLHNRNGDITGIPTGFTELDRMTSGFQRSDLIIVAARPSVGKTAFALNIAQNVATKTNENVAIFSLEMSAQQLVMRMLCAEGNINAQNLRTGKLTPEDWGKLTMAMGSLSNAGIYIDDTPSIRVSDIRAKCRRLKQESGLGMVVIDYLQLIQGSGRNRENRQQEVSEISRSLKALARELEVPVIALSQLSRSVEQRQDKRPMMSDLRESGSIEQDADIVAFLYRDDYYNKDSENKNIIEIIIAKQRNGPVGTVQLAFIKEYNKFVNLERRFDEAQIPPGA | 6 |
| GkDnaC R344A (enzyme, Geobacillus kaustophilus HTA426, UniProt Q5KU75 1-454, looked up) MSELFSERIPPQSIEAEQAVLGAVFLDPTALTLASERLIPEDFYRAAHQKIFHAMLRVADKGEPVDLVTVTAELAALEQLEEVGGVSYLSELADSVPTAANVEYYARIVEEKSLLRRLIRTATSIAQDGYTREDEIDVLLDEAERKIMEVSQRKHSGAFKNIKDVLVQTYDNIEMLHNRNGDITGIPTGFTELDRMTSGFQRSDLIIVAARPSVGKTAFALNIAQNVATKTNENVAIFSLEMSAQQLVMRMLCAEGNINAQNLRTGKLTPEDWGKLTMAMGSLSNAGIYIDDTPSIRVSDIRAKCRRLKQESGLGMVVIDYLQLIQGSGRNRENRQQEVSEISASLKALARELEVPVIALSQLSRSVEQRQDKRPMMSDLRESGSIEQDADIVAFLYRDDYYNKDSENKNIIEIIIAKQRNGPVGTVQLAFIKEYNKFVNLERRFDEAQIPPGA | 6 |
| GkDnaC R332A (enzyme, Geobacillus kaustophilus HTA426, UniProt Q5KU75 1-454, looked up) MSELFSERIPPQSIEAEQAVLGAVFLDPTALTLASERLIPEDFYRAAHQKIFHAMLRVADKGEPVDLVTVTAELAALEQLEEVGGVSYLSELADSVPTAANVEYYARIVEEKSLLRRLIRTATSIAQDGYTREDEIDVLLDEAERKIMEVSQRKHSGAFKNIKDVLVQTYDNIEMLHNRNGDITGIPTGFTELDRMTSGFQRSDLIIVAARPSVGKTAFALNIAQNVATKTNENVAIFSLEMSAQQLVMRMLCAEGNINAQNLRTGKLTPEDWGKLTMAMGSLSNAGIYIDDTPSIRVSDIRAKCRRLKQESGLGMVVIDYLQLIQGSGRNAENRQQEVSEISRSLKALARELEVPVIALSQLSRSVEQRQDKRPMMSDLRESGSIEQDADIVAFLYRDDYYNKDSENKNIIEIIIAKQRNGPVGTVQLAFIKEYNKFVNLERRFDEAQIPPGA | 6 |
| GkDnaC R330A (enzyme, Geobacillus kaustophilus HTA426, UniProt Q5KU75 1-454, looked up) MSELFSERIPPQSIEAEQAVLGAVFLDPTALTLASERLIPEDFYRAAHQKIFHAMLRVADKGEPVDLVTVTAELAALEQLEEVGGVSYLSELADSVPTAANVEYYARIVEEKSLLRRLIRTATSIAQDGYTREDEIDVLLDEAERKIMEVSQRKHSGAFKNIKDVLVQTYDNIEMLHNRNGDITGIPTGFTELDRMTSGFQRSDLIIVAARPSVGKTAFALNIAQNVATKTNENVAIFSLEMSAQQLVMRMLCAEGNINAQNLRTGKLTPEDWGKLTMAMGSLSNAGIYIDDTPSIRVSDIRAKCRRLKQESGLGMVVIDYLQLIQGSGANRENRQQEVSEISRSLKALARELEVPVIALSQLSRSVEQRQDKRPMMSDLRESGSIEQDADIVAFLYRDDYYNKDSENKNIIEIIIAKQRNGPVGTVQLAFIKEYNKFVNLERRFDEAQIPPGA | 6 |
| GkDnaC K50A (enzyme, Geobacillus kaustophilus HTA426, UniProt Q5KU75 1-454, looked up) MSELFSERIPPQSIEAEQAVLGAVFLDPTALTLASERLIPEDFYRAAHQAIFHAMLRVADKGEPVDLVTVTAELAALEQLEEVGGVSYLSELADSVPTAANVEYYARIVEEKSLLRRLIRTATSIAQDGYTREDEIDVLLDEAERKIMEVSQRKHSGAFKNIKDVLVQTYDNIEMLHNRNGDITGIPTGFTELDRMTSGFQRSDLIIVAARPSVGKTAFALNIAQNVATKTNENVAIFSLEMSAQQLVMRMLCAEGNINAQNLRTGKLTPEDWGKLTMAMGSLSNAGIYIDDTPSIRVSDIRAKCRRLKQESGLGMVVIDYLQLIQGSGRNRENRQQEVSEISRSLKALARELEVPVIALSQLSRSVEQRQDKRPMMSDLRESGSIEQDADIVAFLYRDDYYNKDSENKNIIEIIIAKQRNGPVGTVQLAFIKEYNKFVNLERRFDEAQIPPGA | 6 |
| GkDnaC R117A (enzyme, Geobacillus kaustophilus HTA426, UniProt Q5KU75 1-454, looked up) MSELFSERIPPQSIEAEQAVLGAVFLDPTALTLASERLIPEDFYRAAHQKIFHAMLRVADKGEPVDLVTVTAELAALEQLEEVGGVSYLSELADSVPTAANVEYYARIVEEKSLLRALIRTATSIAQDGYTREDEIDVLLDEAERKIMEVSQRKHSGAFKNIKDVLVQTYDNIEMLHNRNGDITGIPTGFTELDRMTSGFQRSDLIIVAARPSVGKTAFALNIAQNVATKTNENVAIFSLEMSAQQLVMRMLCAEGNINAQNLRTGKLTPEDWGKLTMAMGSLSNAGIYIDDTPSIRVSDIRAKCRRLKQESGLGMVVIDYLQLIQGSGRNRENRQQEVSEISRSLKALARELEVPVIALSQLSRSVEQRQDKRPMMSDLRESGSIEQDADIVAFLYRDDYYNKDSENKNIIEIIIAKQRNGPVGTVQLAFIKEYNKFVNLERRFDEAQIPPGA | 6 |

Target: the molecule itself
Assay: crystal structure

| Binder | stoichiometry N |
| --- | --- |
| Geobacillus kaustophilus HTA426 DnaC helicase, wild type (enzyme, UniProt Q5KU75 1-454, looked up) MSELFSERIPPQSIEAEQAVLGAVFLDPTALTLASERLIPEDFYRAAHQKIFHAMLRVADKGEPVDLVTVTAELAALEQLEEVGGVSYLSELADSVPTAANVEYYARIVEEKSLLRRLIRTATSIAQDGYTREDEIDVLLDEAERKIMEVSQRKHSGAFKNIKDVLVQTYDNIEMLHNRNGDITGIPTGFTELDRMTSGFQRSDLIIVAARPSVGKTAFALNIAQNVATKTNENVAIFSLEMSAQQLVMRMLCAEGNINAQNLRTGKLTPEDWGKLTMAMGSLSNAGIYIDDTPSIRVSDIRAKCRRLKQESGLGMVVIDYLQLIQGSGRNRENRQQEVSEISRSLKALARELEVPVIALSQLSRSVEQRQDKRPMMSDLRESGSIEQDADIVAFLYRDDYYNKDSENKNIIEIIIAKQRNGPVGTVQLAFIKEYNKFVNLERRFDEAQIPPGA | 6 |

Target: T1, GkDnaC replicative helicase WT
Assay: X-ray crystal structure

| Binder | binding result |
| --- | --- |
| TTTTTTTTTTTTTTT (ssDNA) [(dT)15] | binds |
